Laboratory results reported in US20240287172A1 (SCIRHOM, published 2024).

T1: hiR2-FL-L589P-T7 (human, UniProt Q6PJF5 1-856)
T1 sequence: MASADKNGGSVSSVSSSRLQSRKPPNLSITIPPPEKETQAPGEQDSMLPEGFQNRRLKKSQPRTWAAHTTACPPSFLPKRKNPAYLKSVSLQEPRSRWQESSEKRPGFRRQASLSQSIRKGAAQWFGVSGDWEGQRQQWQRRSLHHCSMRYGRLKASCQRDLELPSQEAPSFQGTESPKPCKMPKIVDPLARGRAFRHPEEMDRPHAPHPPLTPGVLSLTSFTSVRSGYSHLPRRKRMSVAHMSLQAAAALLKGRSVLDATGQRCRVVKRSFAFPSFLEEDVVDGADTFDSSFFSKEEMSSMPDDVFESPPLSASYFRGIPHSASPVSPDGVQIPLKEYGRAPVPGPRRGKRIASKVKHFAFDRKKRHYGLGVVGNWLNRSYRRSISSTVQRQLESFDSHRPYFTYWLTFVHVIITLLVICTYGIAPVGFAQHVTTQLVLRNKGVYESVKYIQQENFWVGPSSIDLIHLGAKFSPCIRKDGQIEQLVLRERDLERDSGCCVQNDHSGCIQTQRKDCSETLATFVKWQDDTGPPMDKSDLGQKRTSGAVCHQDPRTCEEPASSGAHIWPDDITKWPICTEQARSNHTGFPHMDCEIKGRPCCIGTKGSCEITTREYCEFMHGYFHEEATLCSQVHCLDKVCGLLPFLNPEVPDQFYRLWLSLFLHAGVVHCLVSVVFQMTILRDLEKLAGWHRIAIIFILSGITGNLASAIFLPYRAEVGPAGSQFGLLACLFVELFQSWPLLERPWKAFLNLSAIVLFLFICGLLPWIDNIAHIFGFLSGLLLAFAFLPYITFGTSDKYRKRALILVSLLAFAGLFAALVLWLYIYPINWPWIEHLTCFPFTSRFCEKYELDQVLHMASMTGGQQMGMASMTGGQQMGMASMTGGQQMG


Molecular target: T1, hiR2-FL-L589P-T7
Test: FACS, MEF-DKO cells, 3 µg/ml
Method in brief: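 Binding read by flow cytometry after a PE goat anti-mouse IgG F(ab′)2 secondary (1:100, on ice, 1 h, dark). Before that, immortalized MEF-DKO lines carrying single-mutant hiR2-FL-T7 constructs were incubated 1 h on ice with 3 μg/ml antibody or FACS buffer alone.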

Binder | loss of binding vs wild type [%]
antibody 48 (antibody, V domains shown, mouse IgG, kappa light chain; also called clone #48; purified antibody 48) VH: QVQLQQSGTELVRPGTSVKVSCKASGYAFTNYLIEWVKQRPGQGLEWIGVINPGSGFTKYNEKFKGKATLTADKSSSTVYMHLSSLTSEDSAVYFCARGLYRAMDYWGQGTSVTVSS VL: DIQMTQSPASQSASLGESVTITCLASQTIATWLAWYQQKPGKSPQLLIYGATTLADGVPSRFSGGGSGTKFSFKISSLQAEDFVSYYCQQLYSTPYTFGGGTKLEIK | ≥ 60
antibody 50 (antibody, V domains shown, mouse IgG, kappa light chain; also called clone #50; purified antibody 50) VH: QVQLQQSGAELVRPGASVKVSCKASGYAFSNYLIEWVKQRPGQGLEWIGVINPGSGFTKYNEKFKGKATLTADKSSSTAYMQLSSLTSEDSAVYFCARGLYRAMDYWGQGTSVTVSS VL: DIQMTQSPASQSASLGESVTITCLASQTIGTWLAWYQQKPGKSPQLLIYAAASLADGVPSRFSGGGSGTKFSFKISSLQAEDFVNYYCQQIYSTPYTFGGGTKLEIK | ≥ 95
